Measurements taken from US8048433B2, “Deacylation of LPS in gram negative bacteria” (priority 2004, dated 2011).

Columns and labels:
[1] = In vitro modification assay with refolded or membrane-localized PagL (Tricine-SDS-PAGE); format: biochemical; conditions: purified N. meningitidis LPS
Experimental: Refolded PagL(Pa)(−) (10 mg/ml) or cell envelopes isolated from E. coli BL21 Star™ (DE3) containing the empty vector pET-11a or the pPagL plasmids were diluted 10 fold in double distilled water. 4 μl of the diluted refolded protein or cell envelope solution was incubated in 50 mM Hepes (pH 8.0), 0.1% Triton X-100, 0.5 M NaCl, and 0.75 nmol N. meningitidis L3-LPS in a final volume of 10 μl at 37° C. for 16 h. To test whether the reaction was dependent on divalent cations, 5 mM EDTA was added into the reaction with the refolded PagL(Pa)(−). The reactions were terminated by boiling in sample buffer (28), after which the samples were treated with 0.5 mg/ml proteinase K for 1 hour at 55° C., followed by 10 min incubation at 95° C. The samples were diluted 25 fold by adding sample buffer, after which 2 μl of the samples were analysed by Tricine-SDS-PAGE (see above).

E. coli LPS = assay: In vivo modification of E. coli LPS by PagL expressed in E. coli BL21 Star (DE3) (Tricine-SDS-PAGE, GC/MS, ESI-MS); format: cell-based; conditions: GC/MS and ESI-MS data
Experimental: To LPS-containing samples 0.5 mg/ml proteinase K (end concentration) was added to the sample buffer (28). The samples were incubated for 60 min at 55° C., followed by 10 min at 95° C. to inactivate proteinase K. The samples was then diluted 10 fold by adding sample buffer, after which 2 μl of the sample were applied to a Tricine-SDS-PAGE gel (30). The bromophenol blue was allowed to run into the separating gel at 35 V, after which the voltage was increased to 105 V. After the front reached the bottom of the gel, the samples were left running for another 45 min. The gels were fixed overnight in water/ethanol/acetic acid 11:8:1 (v/v/v) and subsequently stained with silver as described (31).
LPS was isolated using the hot phenol/water extraction method (3). […]
To study whether the cloned PagL homologs were active on E. coli LPS, IPTG was added to exponentially growing E. coli BL21 Star™ (DE3) cells containing the empty vector pET-11a or the pPagL plasmids, and after various incubation periods, samples equivalent to one OD600 unit were collected and their LPS content was analyzed by Tricine-SDS-PAGE. […]
Structural Analysis of PagL-Modified LPS: to determine its fatty acid content, LPS was isolated from bacteria that were grown in the presence of 10 mM MgCl2 to suppress PhoP/PhoQ-regulated modifications of lipid A and analyzed by GC/MS. […]

B. pertussis LPS = assay: Expression of PagL and PagP in B. pertussis strain Tohama, lipid A analysed by ESI-MS and Tricine-SDS-PAGE; format: cell-based; conditions: for relative abundance of lipid A molecular ions: palmitoylate: Table III total of palmitoylated species
Experimental: LPS was isolated using the hot phenol/water extraction method (Westphal and Jann, Methods Carbohydr. Chem. 5; 83-91, 1965) with slight modifications. In short, bacteria were grown in THIJS medium in the presence of 1 mM IPTG (end concentration) for 64 h. Cells were harvested by centrifugation and resuspended in 40 mM sodium phosphate buffer (pH 7.0) containing 5 mM EDTA. The cells were treated overnight with lysozyme at 4° C., after which an equal volume of phenol was added. The suspension was heated to 70° C., incubated for 30 min while shaking, and subsequently cooled to 10° C., after which phases were separated by centrifugation for 10 min at 8,000×g. The upper phase was collected and the extraction was repeated after adding an equal volume of distilled water to the lower phase. The two upper phases were combined, dialysed against tap water until the phenol odour disappeared, freeze-dried, and subsequently taken up in distilled water. The LPS was subsequently pelleted by centrifugation for 3 h at 150,000×g and dissolved in distilled water, after which the LPS concentration was determined by analysing the 3-hydroxytetradecanoic acid content, using a 6890 Agilent gas chromatograph, as described (Welch, Clin. Microbiol. Rev. 1991). For ESI-MS, a 200 μl aliquot of isolated LPS (50 nmol/ml) was freeze-dried and taken up in 0.1 ml 2% acetic acid. The mixture was heated for 2 h at 95° C. to hydrolyse the LPS and release the lipid A moiety. Subsequently, the mixture was cooled to room temperature and centrifuged for 10 min at 16,100×g. The pellet was washed twice in 0.1 ml double-distilled water, taken up in 0.1 ml double-distilled water, and 0.3 ml chloroform/methanol (2:1, v/v) was added. After vigorous vortexing, phases were separated by centrifugation for 10 min at 16,100×g. The […] phase was then used for structural analysis of purified lipid A by nanoelectrospray tandem MS on a Finnigan LCQ in the negative ion mode (Wilm and Mann, Anal. Chem. 1996).
To express PagP and PagL in B. pertussis strain Tohama, the pagL gene of B. bronchiseptica (pagL(Bb)) and the pagP gene of B. pertussis (pagP(Bp)) were expressed from the broad-host range low-copy number expression vector pMMB67EH. As a control, a strain expressing the pagP gene of E. coli (pagP(Ec)) was also constructed. LPS was isolated from wild-type, PagP-expressing, or PagL-expressing B. pertussis strain Tohama and analysed by Tricine-SDS-PAGE. LPS isolated from the PagL(Bb)-expressing strain appeared unaffected on the gel, whereas that from the PagP-expressing appeared potentially modified, since a band with a lower electrophoretic mobility than that of wild-type B. pertussis LPS was detected (FIG. 14). Furthermore, as compared to the PagP(Bp)-expressing strain, the modification-efficiency appeared higher in the PagP(Ec)-expressing strain (FIG. 14). To evaluate the possible LPS modifications in further detail, the lipid A moieties of the strains were analysed by ESI-MS in the negative-ion mode. […] The peak at m/z 1557 represents the characteristic penta-acylated bis-phosphate species that is typically found in B. pertussis (Caroff et al., Microbes. Infect., 1994), whereas the peak at m/z 1477 corresponds to a penta-acylated mono-phosphate species. The two remaining peaks at m/z 1307 and 1251 represent deacylated lipid A species of the molecular ion at m/z 1477, which miss the primary 3-hydroxydecanoic acid residue at the 3 position or a primary 3-hydroxytetradecanoic acid residue (either at the 2 or the 3′ position), respectively. […] Furthermore, the large majority of lipid A species are mono-phosphate forms (˜80%). […]

[2] = B. pertussis strain Tohama, ESI-MS

B1: PagL(Pa)(−): P. aeruginosa PagL without its signal sequence, refolded in vitro from inclusion bodies and purified (protein, UniProt Q9HVD1 24-173, looked up)
Lipid A deacylase PagL: ADVSAAVGATGQSGMTYRLGLSWDWDKSWWQTSTGRLTGYWDAGYTYWEGGDEGAGKHSLSFAPVFVYEFAGDSIKPFIEAGIGVAAFSGTRVGDQNLGSSLNFEDRIGAGLKFANGQSVGVRAIHYSNAGLKQPNDGIESYSLFYKIPI
With B1 the “in vitro deacylation of LPS in the presence of EDTA” value ([1]; 5 mM EDTA, FIG. 13B) was “deacylation of LPS was still observed” and the “in vitro modification of externally added LPS” value ([1]; 37° C., detergent-containing buffer, FIG. 13) was “converted into a form with a higher electrophoretic mobility”.

B2: PagL(Pa): PagL homolog (lipid A 3-O-deacylase) of P. aeruginosa, SEQ ID No:6 (protein, listed as Pseudomonas aeruginosa)
chain: MKKLLPLAVLAALSSVHVASAQAADVSAAVGATGQSGMTYRLGLSWDWDKSWWQTSTGRLTGYWDAGYTYWEGGDEGAGKHSLSFAPVFVYEFAGDSIKPFIEAGIGVAAFSGTRVGDQNLGSSLNFEDRIGAGLKFANGQSVGVRAIHYSNAGLKQPNDGIESYSLFYKIPI
For B2, the “lipid A deacylase activity” value (E. coli LPS) was “active lipid A deacylases”.

B3: PagL(Bb): lipid A 3-O-deacylase PagL of B. bronchiseptica, SEQ ID No. 1 (protein, listed as Bordetella sp.)
chain: MQFLKKNKPLFGIVTLALACATAQAQPTQGGVSLHYGIGDHYQRVTLNYETPTLWSHQFGGNWGRLDLTPELGASYWWADGSRSPGHVWQASAIPMFRWWTGERFYIEAGIGATVFSSTSFADKRIGSAFQFGDHIGLGFLLTPSNRIGLRYSHFSNAGIKEPNPGLDIVQLTYTYQF
In the case of B3, the “lipid A deacylase activity” value (E. coli LPS) is reported as “active lipid A deacylases”, the “relative content of lipid A species that miss the 3-hydroxydecanoic acid residue at their 3 position” value (B. pertussis LPS; B. pertussis strain Tohama, ESI-MS peak heights) is reported as “more than 92%” and the “relative abundance of lipid A molecular ions: palmitoylate” value (B. pertussis LPS; [2]) is reported as 0.0. For the same molecule, the “lipid A 3-O-deacylase activity in B. pertussis” value (B. pertussis LPS; B. pertussis strain Tohama, pMMB67EH expression, ESI-MS) was “active in B. pertussis”.

B4: PagP(Ec): palmitoyl transferase PagP of E. coli, expressed in B. pertussis as a control (protein, UniProt P37001 26-186, looked up)
Lipid A palmitoyltransferase …: NADEWMTTFRENIAQTWQQPEHYDLYIPAITWHARFAYDKEKTDRYNERPWGGGFGLSRWDEKGNWHGLYAMAFKDSWNKWEPIAGYGWESTWRPLADENFHLGLGFTAGVTARDNWNYIPLPVLLPLASVGYGPVTFQMTYIPGTYNNGNVYFAWMRFQF
With B4 the “share of the total lipid A population palmitoylated” value (B. pertussis LPS; B. pertussis strain Tohama expressing PagP, ESI-MS) was about 47%, the “relative abundance of lipid A molecular ions: palmitoylate” value (B. pertussis LPS; [2]) was 46.5 and the modification-efficiency (B. pertussis LPS; Tricine-SDS-PAGE of B. pertussis LPS, compared to the PagP(Bp)-expressing strain, FIG. 14) was “higher”.
